# Measured values reported in US20260327314 (published 2026).
# Read-outs that look alike come from different tables or passages of the source.
# T1: Human CD16B (human)
# T1 chain: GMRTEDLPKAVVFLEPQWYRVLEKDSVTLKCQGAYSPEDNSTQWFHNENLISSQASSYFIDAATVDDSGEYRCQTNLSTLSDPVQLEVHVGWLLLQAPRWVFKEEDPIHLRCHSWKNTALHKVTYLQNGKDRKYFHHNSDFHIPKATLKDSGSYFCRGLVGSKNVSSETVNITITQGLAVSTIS
# Assays:
# [1] = molecular target: Human CD16A 158V (human); assay: ELISA
# [2] = molecular target: T1, Human CD16B; assay: ELISA
# [3] = molecular target: Human CD16A 158V (human); assay: BLI
# Target sequence in this assay (chain, as listed by the source): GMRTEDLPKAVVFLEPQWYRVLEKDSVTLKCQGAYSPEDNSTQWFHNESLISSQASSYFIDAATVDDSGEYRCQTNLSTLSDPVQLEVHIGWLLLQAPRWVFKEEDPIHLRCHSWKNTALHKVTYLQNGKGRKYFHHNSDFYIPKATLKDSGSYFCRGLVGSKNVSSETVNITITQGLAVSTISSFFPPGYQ
# [4] = molecular target: Human CD16A 158F (human); assay: BLI
# [5] = molecular target: Human CD16A 158F (human); assay: ELISA
# Target sequence in this assay (chain, as listed by the source): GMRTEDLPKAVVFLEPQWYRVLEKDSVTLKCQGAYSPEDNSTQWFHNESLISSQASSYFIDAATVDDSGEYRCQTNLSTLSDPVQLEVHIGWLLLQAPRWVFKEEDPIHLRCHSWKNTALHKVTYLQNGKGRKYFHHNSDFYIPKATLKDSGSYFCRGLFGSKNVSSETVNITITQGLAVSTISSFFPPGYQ
# [6] = molecular target: Human CD16A 158V (human); assay: ELISA; remark: listed apart in the source
Binder,EC50 [1] [nM],binding result [2],Kd [3] [nM],Kd [4] [nM],EC50 [5] [nM],EC50 [6] [nM]
BM130-92 (Margetuximab) (antibody) chain 1: QVQLQQSGPELVKPGASLKLSCTASGFNIKDTYIHWVKQRPEQGLEWIGRIYPTNGYTRYDPKFQDKATITADTSSNTAYLQVSRLTSEDTAVYYCSRWGGDGFYAMDYWGQGASVTVSSASTKGPSVFPLAPSSKSTSGGTAALGCLVKDYFPEPVTVSWNSGALTSGVHTFPAVLQSSGLYSLSSVVTVPSSSLGTQTYICNVNHKPSNTKVDKRVEPKSCDKTHTCPPCPAPELVGGPSVFLLPPKPKDTLMISRTPEVTCVVVDVSHEDPEVKFNWYVDGVEVHNAKTKPPEEQYNSTLRVVSVLTVLHQDWLNGKEYKCKVSNKALPAPIEKTISKAKGQPREPQVYTLPPSRDELTKNQVSLTCLVKGFYPSDIAVEWESNGQPENNYKTTPLVLDSDGSFFLYSKLTVDKSRWQQGNVFSCSVMHEALHNHYTQKSLSLSPGK chain 2: DIVMTQSHKFMSTSVGDRVSITCKASQDVNTAVAWYQQKPGHSPKLLIYSASFRYTGVPDRFTGSRSGTDFTFTISSVQAEDLAVYYCQQHYTTPPTFGGGTKVEIKRTVAAPSVFIFPPSDEQLKSGTASVVCLLNNFYPREAKVQWKVDNALQSGNSQESVTEQDSKDSTYSLSSTLTLSKADYEKHKVYACEVTHQGLSSPVTKSFNRGEC,45.1,no binding,–,–,–,–
CD16-VH-RM72 (antibody) EVQLVESGGGLVQPGGSLRLSCAASGFTFSNYGMSWVRQAPGKGLEWIGSIYYSGQTNYNPSLKSLVTISRDNSKNTLYLQMNSLRAEDTATYYCARESIDYWGQGTLVTVSS,–,–,4.38,4.58,1.89,1.86
CD16-VH-RM75 (antibody) EVQLVESGGGLVQPGGSLRLSCAASGFTFSNYGMSWVRQAPGKGLEWIGSIYYSGDTNYNPSLKSLVTISRDNSKNTLYLQMNSLRAEDTATYYCARESIDYWGQGTLVTVSS,–,–,3.51,2.62,3.04,2.06
BM156-01 (antibody) EVQLVESGGGLVQPGGSLRLSCAASGFTFSNYGMSWVRQAPGKGLEWIGSIYYSGSTNYNPSLKSLVTISRDNSKNTLYLQMNSLRAEDTATYYCARESIDYWGQGTLVTVSS,–,–,20.6,5.15,7.66,4.57
CD16-VH-RM73 (antibody) EVQLVESGGGLVQPGGSLRLSCAASGFTFSNYGMSWVRQAPGKGLEWIGSIYYSGTTNYNPSLKSLVTISRDNSKNTLYLQMNSLRAEDTATYYCARESIDYWGQGTLVTVSS,–,–,8.2,2.41,3.29,4.2

# Now from value to binder:
EC50 [1] [nM],binding result [2],Kd [3] [nM],Kd [4] [nM],EC50 [5] [nM],EC50 [6] [nM],Binder
–,–,5.31,1.24,1.21,1.42,CD16-VH-RM77 (antibody) EVQLVESGGGLVQPGGSLRLSCAASGFTFSNYGMSWVRQAPGKGLEWIGSIYYNGSTNYNPSLKSLVTISRDNSKNTLYLQMNSLRAEDTATYYCARESIDYWGQGTLVTVSS
–,–,2.69,2.45,1.25,1.8,CD16-VH-RM81 (antibody) EVQLVESGGGLVQPGGSLRLSCAASGFTFSNYGMSWVRQAPGKGLEWIGSIYYTGSTNYNPSLKSLVTISRDNSKNTLYLQMNSLRAEDTATYYCARESIDYWGQGTLVTVSS
–,–,16.2,6.06,2.2,2.71,CD16-VH-RM76 (antibody) EVQLVESGGGLVQPGGSLRLSCAASGFTFSNYGMSWVRQAPGKGLEWIGSIYYSGETNYNPSLKSLVTISRDNSKNTLYLQMNSLRAEDTATYYCARESIDYWGQGTLVTVSS
–,–,–,3.99,3.03,3.32,CD16-VH-RM80 (antibody) EVQLVESGGGLVQPGGSLRLSCAASGFTFSNYGMSWVRQAPGKGLEWIGSIYYDGSTNYNPSLKSLVTISRDNSKNTLYLQMNSLRAEDTATYYCARESIDYWGQGTLVTVSS
–,–,–,5.26,3.29,3.2,CD16-VH-RM82 (antibody) EVQLVESGGGLVQPGGSLRLSCAASGFTFSNYGMSWVRQAPGKGLEWIGSIYYSVSTNYNPSLKSLVTISRDNSKNTLYLQMNSLRAEDTATYYCARESIDYWGQGTLVTVSS
